# B1: ADI-19455 (antibody, V domains shown)
# VH: EVQLVESGGGLVKPGGSLRLSCAASGFTFSSYSMNWVRQAPGKGLEWVSSISSSSSYIYYADSVKGRFTISRDNAKNSLYLQMNSLRAEDTAVYYCARSQSGSYYSSDYWGQGTLVTVSS
# VL: QSVLTQPPSVSGAPGQRVTISCTGSSSNIGAGYDVHWYQQLPGTAPKLLIYGNSNRPSGVPDRFSGSKSGTSASLAITGLQAEDEADYYCQSYDSSLSGWVFGGGTKVTVL
# notes: full-length IgG
# B2: ADI-25595 (antibody, V domains shown)
# VH: EVQLVESGGGLVKPGGSLRLSCAASGFTFSSYSMNWVRQAPGKGLEWVSSISSSSSYIYYADSVKGRFTISRDNAKNSLYLQMNSLRAEDTAVYYCARYQSSSWYYFDYWGQGTLVTVSS
# VL: SYVLTQPPSVSGAPGQRVTISCTGSSSNIGAGYDVHWYQQLPGTAPKLLIYGNSNRPSGVPDRFSGSKSGTSASLAITGLQAEDEADYYCQSYDSSLSGVVFGGGTKLTVL
# notes: full-length IgG; also called Ab 464
# B3: ADI-25496 (antibody, V domains shown)
# VH: QVQLVQSGGGLVKPGGSLRLSCAASGFTFSSYSMNWVRQAPGKGLEWVSSISSSSSYIYYADSVKGRFTISRDNAKNSLYLQMNSLRAEDTAVYYCARVASEVWFFDLWGRGTLVTVSS
# VL: QPVLTQPPSVSGAPGQRVTISCTGSSSNIGAGYDVHWYQQLPGTAPKLLIYGNSNRPSGVPDRFSGSKSGTSASLAITGLQAEDEADYYCQSYDSSLSGYVFGTGTKLTVL
# notes: full-length IgG
# B4: ADI-25588 (antibody, V domains shown)
# VH: EVQLVESGGGLVKPGGSLRLSCAASGFTFSSYSMNWVRQAPGKGLEWVSSISSSSSYIYYADSVKGRFTISRDNAKNSLYLQMNSLRAEDTAVYYCARYSSSLGAFDIWGQGTTVTVSS
# VL: QSVLTQPPSVSGAPGQRVTISCTGSSSNIGAGYDVHWYQQLPGTAPKLLIYGNSNRPSGVPDRFSGSKSGTSASLAITGLQAEDEADYYCQSYDSSLSDVFGTGTKVTVL
# notes: full-length IgG
# B5: ADI-22767 (antibody, V domains shown)
# VH: QVQLVESGGGLVKPGGSLRLSCAASGFTFSSYSMNWVRQAPGKGLEWVSSISSSSSYIYYADSVKGRFTISRDNAKNSLYLQMNSLRAEDTAVYYCAREANWGVAFDIWGQGTMVTVSS
# VL: QSVVTQPPSVSGAPGQRVTISCTGSSSNIGAGYDVHWYQQLPGTAPKLLIYGNSNRPSGVPDRFSGSKSGTSASLAITGLQAEDEADYYCQSYDSSLSYVFGTGTKVTVL
# notes: full-length IgG
# B6: ADI-19429 (antibody, V domains shown)
# VH: EVQLQESGPGLVKPSETLSLTCTVSGGSISSSSYYWGWIRQPPGKGLEWIGSIYYSGSTYYNPSLKSRVTISVDTSKNQFSLKLSSVTAADTAVYYCARTPLYSYGRVVGFYYYGMDVWGQGTTVTVSS
# VL: QSVLTQPPSVSGAPGQRVTISCTGSSSNIGAGYDVHWYQQLPGTAPKLLIYGNSNRPSGVPDRFSGSKSGTSASLAITGLQAEDEADYYCQSYDSSLSGWVFGGGTKLTVL
# B7: ADI-19435 (antibody, V domains shown)
# VH: QVQLQESGPGLVKPSQTLSLTCTVSGGSISSGSYYWSWIRQPAGKGLEWIGRIYTSGSTNYNPSLKSRVTISVDTSKNQFSLKLSSVTAADTAVYYCAREGRGGAFDIWGQGTLVTVSS
# VL: SYELTQPPSVSVSPGQTARITCSADALPKQYAYWYQQKPGQAPVLVIYKDSERPSGIPERFSGSSSGTTVTLTISGVQAEDEADYYCQSADSSGTYVVFGGGTQLTVL
# notes: full-length IgG
# B8: ADI-19441 (antibody, V domains shown)
# VH: QVQLVQSGAEVKKPGSSVKVSCKASGGTFSSYAISWVRQAPGQGLEWMGRIIPILGIANYAQKFQGRVTITADKSTSTAYMELSSLRSEDTAVYYCARGPLTGYSSSWFDPWGQGTLVTVSS
# VL: EIVMTQSPSSLSASVGDRVTITCRASQSISSYLNWYQQKPGKAPKLLIYAASSLQSGVPSRFSGSGSGTDFTLTISSLQPEDFATYYCQQSYSTLPYTFGQGTKVEIK
# notes: full-length IgG
# B9: ADI-19444 (antibody, V domains shown)
# VH: QVQLVQSGAEVKKPGASVKVSCKASGYTFTSYGISWVRQAPGQGLEWMGWISAYNGNTNYAQKLQGRVTMTTDTSTSTAYMELRSLRSDDTAVYYCARDEALVGATFDYWGQGTLVTVSS
# VL: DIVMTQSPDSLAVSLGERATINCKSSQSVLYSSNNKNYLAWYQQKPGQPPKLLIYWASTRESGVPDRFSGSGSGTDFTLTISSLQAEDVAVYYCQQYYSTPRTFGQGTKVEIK
# notes: full-length IgG
# B10: ADI-19463 (antibody, V domains shown)
# VH: QVQLQESGPGLVKPSQTLSLTCTVSGGSISSGDYYWSWIRQPPGKGLEWIGYIYYSGSTYYNPSLKSRVTISVDTSKNQFSLKLSSVTAADTAVYYCARDRLGIFDYWGQGTLVTVSS
# VL: not shown
# notes: full-length IgG
# B11: ADI-24801 (antibody, V domains shown)
# VH: QVQLVQSGAEVKKPGASVKVSCKASGYTFTSYGISWVRQAPGQGLEWMGWISAYNGNTNYAQKLQGRVTMTTDTSTSTAYMELRSLRSDDTAVYYCARVTARTFGGIRKGYYYGMDVWGQGTTVTVSS
# VL: not shown
# notes: full-length IgG; also called Ab 368
# B12: ADI-24813 (antibody, V domains shown)
# VH: EVQLLESGGGLVQPGRSLRLSCAASGFTFDDYAMHWVRQAPGKGLEWVSGISWNSGSIGYADSVKGRFTISRDNAKNSLYLQMNSLRAEDTALYYCAKDGDSSSWRDSNFDYWGQGTLVTVSS
# VL: QSVLTQPPSVSGAPGQRVTISCTGSSSNIGAGYDVHWYQQLPGTAPKLLIYGNSNRPSGVPDRFSGSKSGTSASLAITGLQAEDEADYYCQSYDSSLSGVVFGGGTKLTVL
# notes: full-length IgG
# B13: ADI-21018 (antibody, V domains shown)
# VH: EVQLLESGGGLVKPGGSLRLSCAGSGFTLSSYGMNWVRQAPGQGLEWISSISSSSSYINYADSVKGRFTISRDNAQNSLYLQLNSLRAEDTAVYYCARGGLGYDYGLGSYTYADYWGQGTLVTVSS
# VL: QSVVTQPPSVSGAPGQRVTISCTGSSSNTGAGYDIHWYQQLPGTGPKLLIYGNKNRPSGVPDRFSGSKSGTSASLAITGLQAEDEADYYCQSYDSSLSGWVFGGGTKVTVL
# B14: ADI-21028 (antibody, V domains shown)
# VH: EVQLVESGGALVKPGGSLRLSCVASGFTFSDYYMHWVRQAPGKGLEWVSYISSTSSFTNYADSVKGRFIISRDNAKNSLYLQLNSLRAEDTAVYYCARDESSGWQTRRHFGMDVWGQGTLVTVSS
# VL: EIVMTQSPSTLSASVGDRVTITCRASQSLNTWLAWYQHKPGKAPKLLISTASSLQSGVPSRFSASGSGTEFTLTISSLQPDDFATYYCQQFRGTFGPGTKVEIK
# B15: ADI-21049 (antibody, V domains shown)
# VH: EVQLVESGGGLVKPGGSLRLSCSASGFAFSSYSMNWVRQAPGKGLEWVSSISASSSYIFYADSVKGRFTISRDNAKNSLYLQMNSLRAEDTAFYYCARALSPGYGDYRDYWGQGTLVTVSS
# VL: QSVVTQPPSVSGAPGQRVTISCTGSSSNIGAGYDVHWYQQLPGAAPKLLIYGNNNRPSGVPDRFSGSKSGTSASLAITGLQAEDEADFYCQSYDHNLSVVFGGGTKLTVL
# B16: ADI-21057 (antibody, V domains shown)
# VH: QVQLVQSGAEVKKPGESLKISCKASGYSLSNNWIAWVRQMPGKGLEWMGIVYLGDSDARYSPSFQGQVTFSADKSISTAYLQWSSLQASDTAMYFCARHHGDLVVTSDSRYFYGLDVWGQGTTVTVSS
# VL: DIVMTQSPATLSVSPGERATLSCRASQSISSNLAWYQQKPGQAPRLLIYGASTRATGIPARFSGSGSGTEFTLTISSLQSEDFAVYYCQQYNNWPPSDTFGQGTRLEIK
# B17: ADI-21058 (antibody, V domains shown)
# VH: QVQLQESGPGLVKPSETLSLTCTVSGGSISGTTYYWAWIRQPPGKGLEWIGTIFYSGSTYYNPSLQSRVTTSVDASKNQMSLRLSSVTAADTAMYYCARHTSIYDNLTGFYSHLTGVLDMWGQGTMVTVSS
# VL: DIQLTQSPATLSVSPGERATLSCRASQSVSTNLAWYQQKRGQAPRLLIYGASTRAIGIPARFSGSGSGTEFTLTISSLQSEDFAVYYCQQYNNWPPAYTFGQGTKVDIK
# Biological target: T1, RSV postfusion F (postF), subtype A (respiratory syncytial virus subtype A, UniProt P03420 26-513)
# T1 construct: also called Postfusion subtype A; F deltaFP
# Test: BLI
row,Binder,binding result
1,B1,no binding
2,B2,no binding
3,B3,no binding
4,B4,no binding
5,B5,no binding
6,B6,no binding
7,B7,no binding
8,B8,no binding
9,B9,no binding
10,B10,no binding
11,B11,no binding
12,B12,no binding

# Biological target: RSV prefusion F (preF), subtype B (respiratory syncytial virus, subtype B)
# Test: BLI, IgG
row,Binder,Kd [pM]
1,B13,366
2,B14,3330
3,B15,1270
4,B16,860
5,B17,515
